Measurements published in the supplement of paper PMC9112550, “Optimization of the antimicrobial peptide Bac7 by deep mutational scanning” (BMC Biology, 2022).

Test system: Escherichia coli TOP10
Test: shrunken log2 fold change of peptide-encoding DNA abundance (4.5 h post-induction vs induction); higher = less antimicrobial activity (less host growth inhibition)
Settings: time post-induction: 4.5 h; library: site-saturation at positions 5, 18, 19, 20
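Also: peptides expressed intracellularly from a pBAD plasmid library in pooled LB shake-flask culture, induced with 0.3% L-arabinose, DNA abundance read by NGS, three biological replicates, DESeq2 with apeglm shrinkage.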

Row | Sequence | shrunken log2 fold change
1 | RRIRERPPRLPRPRPRPIWWPRP | -0.0447
2 | RRIRERPPRLPRPRPRPIWYPRP | 0.0381
3 | RRIRERPPRLPRPRPRPIYLPRP | -0.649
4 | RRIRERPPRLPRPRPRPIYVPRP | -1.09
5 | RRIRERPPRLPRPRPRPKCSPRP | -0.0163
6 | RRIRERPPRLPRPRPRPKDAPRP | -0.222
7 | RRIRERPPRLPRPRPRPKDGPRP | 0.0062
8 | RRIRERPPRLPRPRPRPKDLPRP | 0.167
9 | RRIRERPPRLPRPRPRPKDYPRP | 0.101
10 | RRIRERPPRLPRPRPRPKFDPRP | 0.154
11 | RRIRERPPRLPRPRPRPKHFPRP | -0.248
12 | RRIRERPPRLPRPRPRPKHHPRP | -0.217
13 | RRIRERPPRLPRPRPRPKIWPRP | 0.0407
14 | RRIRERPPRLPRPRPRPKKKPRP | -0.0784
15 | RRIRERPPRLPRPRPRPKKTPRP | -0.0747
16 | RRIRERPPRLPRPRPRPKPSPRP | 0.229
17 | RRIRERPPRLPRPRPRPKQNPRP | -0.073
18 | RRIRERPPRLPRPRPRPKQVPRP | -0.131
19 | RRIRERPPRLPRPRPRPKRHPRP | 0.0422
20 | RRIRERPPRLPRPRPRPKWGPRP | -0.0917
21 | RRIRERPPRLPRPRPRPKWSPRP | -0.146
22 | RRIRERPPRLPRPRPRPLALPRP | -0.265
23 | RRIRERPPRLPRPRPRPLAWPRP | 0.039
24 | RRIRERPPRLPRPRPRPLCFPRP | -0.313
25 | RRIRERPPRLPRPRPRPLFGPRP | -0.0794

Row | Sequence | shrunken log2 fold change
26 | RRIRERPPRLPRPRPRPLGGPRP | -0.073
27 | RRIRERPPRLPRPRPRPLGQPRP | 0.0127
28 | RRIRERPPRLPRPRPRPLICPRP | -0.74
29 | RRIRERPPRLPRPRPRPLKGPRP | 0.176
30 | RRIRERPPRLPRPRPRPLKIPRP | -0.402
31 | RRIRERPPRLPRPRPRPLLNPRP | 0.0481
32 | RRIRERPPRLPRPRPRPLPMPRP | 0.187
33 | RRIRERPPRLPRPRPRPLPQPRP | -0.06
34 | RRIRERPPRLPRPRPRPLRHPRP | 0.11
35 | RRIRERPPRLPRPRPRPLRNPRP | 0.308
36 | RRIRERPPRLPRPRPRPLSHPRP | -0.314
37 | RRIRERPPRLPRPRPRPLTLPRP | -0.271
38 | RRIRERPPRLPRPRPRPLVDPRP | -0.135
39 | RRIRERPPRLPRPRPRPLWMPRP | 0.00675
40 | RRIRERPPRLPRPRPRPLYMPRP | -0.748
41 | RRIRERPPRLPRPRPRPLYTPRP | -0.41
42 | RRIRERPPRLPRPRPRPMATPRP | 0.0537
43 | RRIRERPPRLPRPRPRPMGGPRP | 0.0346
44 | RRIRERPPRLPRPRPRPMGTPRP | -0.272
45 | RRIRERPPRLPRPRPRPMHEPRP | -0.401
46 | RRIRERPPRLPRPRPRPMHFPRP | -0.163
47 | RRIRERPPRLPRPRPRPMICPRP | -0.115
48 | RRIRERPPRLPRPRPRPMISPRP | -0.11
49 | RRIRERPPRLPRPRPRPMLAPRP | 0.193
50 | RRIRERPPRLPRPRPRPMMDPRP | -0.0298

Row | Sequence | shrunken log2 fold change
51 | RRIRERPPRLPRPRPRPMMIPRP | -0.251
52 | RRIRERPPRLPRPRPRPMPEPRP | -0.114
53 | RRIRERPPRLPRPRPRPMPHPRP | -0.083
54 | RRIRERPPRLPRPRPRPMPRPRP | 0.0247
55 | RRIRERPPRLPRPRPRPMPSPRP | 0.156
56 | RRIRERPPRLPRPRPRPMQCPRP | -0.211
57 | RRIRERPPRLPRPRPRPMTNPRP | -0.112
58 | RRIRERPPRLPRPRPRPMVSPRP | -0.0769
59 | RRIRERPPRLPRPRPRPMVTPRP | -0.0939
60 | RRIRERPPRLPRPRPRPMWDPRP | -0.0758
61 | RRIRERPPRLPRPRPRPMWYPRP | -0.379
62 | RRIRERPPRLPRPRPRPMYDPRP | -0.266
63 | RRIRERPPRLPRPRPRPMYLPRP | -1.99
64 | RRIRERPPRLPRPRPRPNCCPRP | -0.00112
65 | RRIRERPPRLPRPRPRPNCVPRP | -0.0533
66 | RRIRERPPRLPRPRPRPNDQPRP | 0.0572
67 | RRIRERPPRLPRPRPRPNEPPRP | -0.129
68 | RRIRERPPRLPRPRPRPNFGPRP | 0.0437
69 | RRIRERPPRLPRPRPRPNFQPRP | 0.0442
70 | RRIRERPPRLPRPRPRPNGQPRP | 0.0342
71 | RRIRERPPRLPRPRPRPNKMPRP | -0.324
72 | RRIRERPPRLPRPRPRPNMDPRP | -0.209
73 | RRIRERPPRLPRPRPRPNMMPRP | -0.612
74 | RRIRERPPRLPRPRPRPNNEPRP | -0.525
75 | RRIRERPPRLPRPRPRPNQCPRP | -0.00674

Row | Sequence | shrunken log2 fold change
76 | RRIRERPPRLPRPRPRPNQGPRP | -0.348
77 | RRIRERPPRLPRPRPRPNRFPRP | 0.0105
78 | RRIRERPPRLPRPRPRPNSFPRP | -0.249
79 | RRIRERPPRLPRPRPRPNTDPRP | -0.554
80 | RRIRERPPRLPRPRPRPNWCPRP | -0.0117
81 | RRIRERPPRLPRPRPRPNWGPRP | 0.00892
82 | RRIRERPPRLPRPRPRPNWPPRP | 0.202
83 | RRIRERPPRLPRPRPRPNYIPRP | -0.672
84 | RRIRERPPRLPRPRPRPPEGPRP | 0.233
85 | RRIRERPPRLPRPRPRPPHHPRP | -0.123
86 | RRIRERPPRLPRPRPRPPKMPRP | -0.212
87 | RRIRERPPRLPRPRPRPPKRPRP | 0.259
88 | RRIRERPPRLPRPRPRPPKYPRP | -0.294
89 | RRIRERPPRLPRPRPRPPMKPRP | -0.418
90 | RRIRERPPRLPRPRPRPPMRPRP | 0.779
91 | RRIRERPPRLPRPRPRPPMVPRP | -0.45
92 | RRIRERPPRLPRPRPRPPNVPRP | 0.149
93 | RRIRERPPRLPRPRPRPPNWPRP | 0.368
94 | RRIRERPPRLPRPRPRPPPRPRP | 0.837
95 | RRIRERPPRLPRPRPRPPRMPRP | 0.027
96 | RRIRERPPRLPRPRPRPPRRPRP | 0.408
97 | RRIRERPPRLPRPRPRPPSAPRP | 0.632
98 | RRIRERPPRLPRPRPRPPSFPRP | -0.126
99 | RRIRERPPRLPRPRPRPPSQPRP | -0.213
100 | RRIRERPPRLPRPRPRPPTQPRP | 0.159

Row | Sequence | shrunken log2 fold change
101 | RRIRERPPRLPRPRPRPPTVPRP | 0.166
102 | RRIRERPPRLPRPRPRPPWGPRP | 0.285
103 | RRIRERPPRLPRPRPRPPYGPRP | -0.244
104 | RRIRERPPRLPRPRPRPQAKPRP | 0.162
105 | RRIRERPPRLPRPRPRPQARPRP | -0.0863
106 | RRIRERPPRLPRPRPRPQDPPRP | -0.232
107 | RRIRERPPRLPRPRPRPQGWPRP | 0.114
108 | RRIRERPPRLPRPRPRPQHDPRP | -0.265
109 | RRIRERPPRLPRPRPRPQHEPRP | 0.199
110 | RRIRERPPRLPRPRPRPQHRPRP | 0.152
111 | RRIRERPPRLPRPRPRPQIWPRP | 0.0182
112 | RRIRERPPRLPRPRPRPQKFPRP | -0.259
113 | RRIRERPPRLPRPRPRPQKHPRP | -0.608
114 | RRIRERPPRLPRPRPRPQKSPRP | -0.202
115 | RRIRERPPRLPRPRPRPQLCPRP | 0.0651
116 | RRIRERPPRLPRPRPRPQLNPRP | -0.423
117 | RRIRERPPRLPRPRPRPQMEPRP | 0.00522
118 | RRIRERPPRLPRPRPRPQMKPRP | -0.568
119 | RRIRERPPRLPRPRPRPQMPPRP | -0.292
120 | RRIRERPPRLPRPRPRPQNRPRP | -0.281
121 | RRIRERPPRLPRPRPRPQNVPRP | 0.16
122 | RRIRERPPRLPRPRPRPQQKPRP | -0.157
123 | RRIRERPPRLPRPRPRPQQPPRP | 0.166
124 | RRIRERPPRLPRPRPRPQQQPRP | 0.00378
125 | RRIRERPPRLPRPRPRPQQYPRP | -0.318

Row | Sequence | shrunken log2 fold change
126 | RRIRERPPRLPRPRPRPQRLPRP | 0.202
127 | RRIRERPPRLPRPRPRPQRMPRP | -0.411
128 | RRIRERPPRLPRPRPRPQRNPRP | -0.214
129 | RRIRERPPRLPRPRPRPQSGPRP | 0.00436
130 | RRIRERPPRLPRPRPRPQTRPRP | 0.0866
131 | RRIRERPPRLPRPRPRPQTTPRP | 0.0104
132 | RRIRERPPRLPRPRPRPQTWPRP | 0.138
133 | RRIRERPPRLPRPRPRPQVPPRP | -0.103
134 | RRIRERPPRLPRPRPRPQVVPRP | -0.42
135 | RRIRERPPRLPRPRPRPQWYPRP | -0.56
136 | RRIRERPPRLPRPRPRPRADPRP | 0.0209
137 | RRIRERPPRLPRPRPRPRAEPRP | -0.116
138 | RRIRERPPRLPRPRPRPRCPPRP | 0.00202
139 | RRIRERPPRLPRPRPRPRCWPRP | 0.014
140 | RRIRERPPRLPRPRPRPRDAPRP | 0.446
141 | RRIRERPPRLPRPRPRPRDNPRP | -0.321
142 | RRIRERPPRLPRPRPRPRDRPRP | 0.0224
143 | RRIRERPPRLPRPRPRPREHPRP | -0.0329
144 | RRIRERPPRLPRPRPRPRELPRP | 0.569
145 | RRIRERPPRLPRPRPRPRETPRP | 0.0334
146 | RRIRERPPRLPRPRPRPRGCPRP | 0.286
147 | RRIRERPPRLPRPRPRPRGRPRP | 0.358
148 | RRIRERPPRLPRPRPRPRHAPRP | -0.0387
149 | RRIRERPPRLPRPRPRPRHKPRP | -0.0631
150 | RRIRERPPRLPRPRPRPRLHPRP | 0.047
